Columns and labels:
fluorescein = assay: Kd (Tite-Seq); details: format: scFv 4-4-20, heavy + light
[1] = yeast surface expression (ratio to wild type); higher = more expressed; details: format: scFv 4-4-20, heavy + light

B1: unnamed (protein)
chain 1: EVKLDETGGGLVQPGRPMKLSCVASGFEPQSPSPQNKRQSPEKGLEWVAQIRNKPYNYETYYSDSVKGRFTISRDDSKSSVYLQMNNLRVEDMGIYYCTAHETLLCCLWQGTSVTVS
chain 2: DVVMTQTPLSLPVSLGDQASISCRSSQSLVHSNGNTYLRWYLQKPGQSPKVLIYKVSNRFSGVPDRFSGSGSGTDFTLKISRVEAEDLGVYFCSQSTHVPWTFGGGTKLEIK
Kd (fluorescein): ≥ 10 µM | yeast surface expression [1]: 0.444

— the FLAb antibody collection (doi:10.7554/elife.23156)
